Values of other authors, collected in US8071839B2, “Transgenic mouse comprising a polynucleotide encoding human or humanized C5aR and methods of production and use” (G2 Inflammation Pty Ltd, priority 2003, dated 2011).

How the values were obtained:
C5aR [1] = molecular target: T1, C5aR (Homo sapiens, UniProt P21730)
T1 sequence (P21730 1-350): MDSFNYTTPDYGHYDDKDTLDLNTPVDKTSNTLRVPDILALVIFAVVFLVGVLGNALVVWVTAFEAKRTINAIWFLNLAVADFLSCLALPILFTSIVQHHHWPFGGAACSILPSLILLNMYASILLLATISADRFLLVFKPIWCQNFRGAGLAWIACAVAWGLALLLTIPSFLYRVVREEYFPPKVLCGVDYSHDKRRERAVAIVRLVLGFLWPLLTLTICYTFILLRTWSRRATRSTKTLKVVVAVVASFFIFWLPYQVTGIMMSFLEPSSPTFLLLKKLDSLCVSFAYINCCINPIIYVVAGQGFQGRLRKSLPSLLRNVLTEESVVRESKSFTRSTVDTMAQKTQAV

C5aR [2] = molecular target: T1, C5aR; settings: read-out: Kd of C5aR for C5a

B1: murine C5a: mouse C5a, ligand that binds human C5aR (protein, UniProt P06684 679-755, looked up)
C5a anaphylatoxin: NLHLLRQKIEEQAAKYKHSVPKKCCYDGARVNFYETCEERVARVTIGPLCIRAFNECCTIANKIRKESPHKPVQLGR
modifications: C5a anaphylatoxin
For B1, the “binding affinity for human C5aR” value (C5aR [1]) is given as “high affinity”.

B2: C5a: anaphylatoxin fragment of complement protein C5, natural ligand of C5aR (protein, UniProt P01031 678-751, looked up)
C5a anaphylatoxin: TLQKKIEEIAAKYKHSVVKKCCYDGACVNNDETCEQRAARISLGPRCIKAFTECCVVASQLRANISHKDMQLGR
modifications: C5a anaphylatoxin
notes: anaphylatoxin fragment of complement protein C5, natural ligand of C5aR
In the case of B2, the Kd (C5aR [2]) is listed as roughly 1 nM.
